# Reference: patent US20240352438A1, “MEANS AND METHODS FOR DETOXIFYING OCHRATOXIN A” (DSM Austria GmbH, priority 2021, published 2024)
# Assay: OTA detoxification activity assay (specific activity, fluorescence reduction ex/em 390/450 nm)
# Type: biochemical
# Conditions: SEQ ID NO: 1 = 100%
# In short: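 Recombinant enzyme preparation with 200 ng/mL OTA in 100 mM sodium phosphate, at pH 6.0 and pH 7.5, 37° C. Degradation followed as the fall in fluorescence at ex/em 390/450 nm. Specific activity taken from the initial linear slope; one unit degrades 1 μmol OTA per min at a starting OTA of […].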
Molecule,"Specific OTA detoxification activities in % compared to the enzyme of SEQ ID NO: 1, pH 6.0 [%]","Specific OTA detoxification activities in % compared to the enzyme of SEQ ID NO: 1, pH 7.5 [%]"
"117 (protein, exemplary polypeptide) MTTRTRILTAFLSLLAANACAADAAPAAPHTVVLRAARMFDGASGKLVDHPQLTIVGNKIVRIAQGDKAEVPAGAEVVDLGDATLLPGFIDAHVHLSGQSSDNWYGDYFDNMMRFPAEQALYGAYYARITLEAGFTSVRDVGSTDWVALGLRNAIDAGKVPGPRMLVSNYAVGSTGGHADQDPIPPHKLPLAGPLQGVCNGPEECRAAVRYQIKYGANVIKFMPSGGVLSLSDPVDAPELSQDEMNAVIGESHAWGRKVAAHAHGDKAAKMAVAAGVDSIEHGSFIEDDTLRAMKAKNVYLVPTISAIAHVEEKIGTFPPVIAEKGRAAAAHLRQTFRHAVQIGVPIALGTDAGVGAHGSNAREFRYMVENGLTPAQALLAGTANAARLLGTFDRVGTLEAGKLADVVAVPGNPIADITVTERPLFVMKDGVVVRRDAVR",40,80
"129 (protein, exemplary polypeptide) MTTRTRILTAFLSLLAANACAADAAPAAPHTVVLRAARMFDGASGKLVDHPQLTIVGNKIVRIAQGDKAEVPAGAEVVDLGDATLLPGFIDAHVHLSGQCSDNWYGDFFDNMMRFPAEQALYGAYYARITLEAGFTSVRDVGSTDWVALGLRNAIDAGKVPGPRMLVSNYAVGSTGGHADQDPIPPHKLPLAGPLQGVCNGPEECRAAVRYQIKYGANVIKFMPSGGVLSLSDPVDAPELSQDEMNAVIGESHAWGRKVAAHAHGDKAAKMAVAAGVDSIEHGSFIEDDTLRAMKAKNVYLVPTISAIAHVEEKIGCFPPVIAEKGRAAAAHLRQTFRHAVQIGVPIALGTDAGVGAHGSNAREFRYMVENGLTPAQALLAGTANAARLLGTFDRVGTLEAGKLADVVAVPGNPIADITVTERPLFVMKDGVVVRRDAVR",51,83
"134 (protein, exemplary polypeptide) MTTRTRILTAFLSLLAANACAADAAPAAPHTVVLRAARMFDGASGKLVDHPQLTIVGNKIVRIAQGDKAEVPAGAEVVDLGDATLLPGFIDAHVHLSGQSSDNWYGDFFDDMMRFPAEQALYGAYYARITLEAGFTSVRDVGSTDWVALGLRNAIDAGKVPGPRMLVSNYAVGSTGGHADQDPIPPHKLPLAGPLQGVCNGPEECRAAVRYQIKYGANVIKFMPSGGVLSLSDPVDAPELSQDEMNAVIGESHAWGRKVAAHAHGDKAAKMAVAAGVDSIEHGSFIEDDTLRAMKAKNVYLVPTISAIAHVEEKIGTFPPVIAEKGRAAAAHLRQTFRHAVQIGVPIALGTDAGVGAHGSNAREFRYMVENGLTPAQALLAGTANAARLLGTFDRVGTLEAGKLADVVAVPGNPIADITVTERPLFVMKDGVVVRRDAVR",41,52
"133 (protein, exemplary polypeptide) MTTRTRILTAFLSLLAANACAADAAPAAPHTVVLRAARMFDGASGKLVDHPQLTIVGNKIVRIAQGDKAEVPAGAEVVDLGDATLLPGFIDAHVHLSGQSSDNWYGDFFDNMMRFPAEQALYGAYYARITLEAGFTSVRDVGSTDWVALGLRNAIDAGKVPGPRMLVSNYAVGSTGGHADQDPIPPHKLPLAGPLQGVCNGPEECRAAVRYQIKYGANVIKFMPSGGVLSLSDPVDAPELSQDEMNAVIGESHAWGRKVAAHAHGDKAAKMAVAAGVDSIEHGSFIEDDTLRAMKAKNVYLVPTISVIAHVEEKIGTFPPVIAEKGRAAAAHLRQTFRHAVQIGVPIALGTDAGVGAHGSNAREFRYMVENGLTPAQALLAGTANAARLLGTFDRVGTLEAGKLADVVAVPGNPIADITVTERPLFVMKDGVVVRRDAVR",23,27
"118 (protein, exemplary polypeptide) MTTRTRILTAFLSLLAANACAADAAPAAPHTVVLRAARMFDGASGKLVDHPQLTIVGNKIVRIAQGDKAEVPAGAEVVDLGDATLLPGFIDAHVHLSGQSSDNWYGDFFDNMQRFPAEQALYGAYYARITLEAGFTSVRDVGSTDWVALGLRNAIDAGKVPGPRMLVSNYAVGSTGGHADQDPIPPHKLPLAGPLQGVCNGPEECRAAVRYQIKYGANVIKFMPSGGVLSLSDPVDAPELSQDEMNAVIGESHAWGRKVAAHAHGDKAAKMAVAAGVDSIEHGSFIEDDTLRAMKAKNVYLVPTISAIAHVEEKIGTFPPVIAEKGRAAAAHLRQTFRHAVQIGVPIALGTDAGVGAHGSNAREFRYMVENGLTPAQALLAGTANAARLLGTFDRVGTLEAGKLADVVAVPGNPIADITVTERPLFVMKDGVVVRRDAVR",26,22
"126 (protein, exemplary polypeptide) MTTRTRILTAFLSLLAANACAADAAPAAPHTVVLRAARMFDGASGKLVDHPQLTIVGNKIVRIAQGDKAEVPAGAEVVDLGDATLLPGFIDAHVHLSGQSSDNWYGDFFDNMMRFPAEQALYGAYYARITLEAGFTSVRDVGSTDWVALGLRNAIDAGKVPGPRMLVSNYAVGSTGGHADQDPIPPHKLPLAGPLQGVCNGPEECRAAVRYQIKYGANVIKFMPSGGVLSLSDPVDAPELSQDEMNAVIGESEAWGRKVAAHAHGDKAAKMAVAAGVRSIEHGSFIEDDTLRAMKAKNVYLVPTISAIAHVEEKIGTFPPVIAEKGRAAAAHLRQTFRHAVQIGVPIALGTDAGVGAHGSNAREFRYMVENGLTPAQALLAGTANAARLLGTFDRVGTLEAGKLADVVAVPGNPIADITVTERPLFVMKDGVVVRRDAVR",63,75
"142 (protein, exemplary polypeptide) MTTRTRILTAFLSLLAANACAADAAPAAPHTVVLRAARMFDGASGKLVDHPQLTIVGNKIVRIAQGDKAEVPAGAEVVDLGDATLLPGFIDAHVHLSGQSSDNWYGDFFDNMMRFPAEQALYGAYYARITLEAGFTSVRDVPSTDWVALGLRNAIDAGKVPGPRMLVSNYAVGSTGGHADQDPIPPHKLPLAGPLQGVCNGPEECRAAVRYQIKYGANVIKFMPSGGVLSLSDPVDAPELSQDEMNAVIGESHAWGRKVAAHAHGDKAAKMAVAAGVDSIEHGSFIEDDTLRAMKAKNVYLVPTISAIAHVEEKIGTFPPVIAEKGRAAAAHLRQTFRHAVQIGVPIALGTDAGVGAHGSNAREFRYMVENGLTPAQALLAGTANAARLLGTFDRVGTLEAGKLADVVAVPGNPIADITVTERPLFVMKDGVVVRRDAVR",34,8
"135 (protein, exemplary polypeptide) MTTRTRILTAFLSLLAANACAADAAPAAPHTVVLRAARMFDGASGKLVDHPQLTIVGNKIVRIAQGDKAEVPAGAEVVDLGDATLLPGFIDAHVHLSGQSSDNWYGDFFDNMMRFPAEQALYGAYYARITLEAGFTSVRDVGSTDWVALGLRNAIDAGKVPGPRMLVSNYAVGSTGGHADQDPIPPHKLPLAGPLQGVCNGPEECRAAVRYQIKYGANVIKFMPSGGVLSLSDPVDAPELSQDEMNAVIGESHAWGRKVAAHAHGDKAAKMAVAAGVDSIEHGSFIEDDTLRAMKAKNVCLVPTISAIAHVEEKIGTFPPVIAEKGRAAAAHLRQTFRHAVQIGVPIALGTDAGVGAHGSNAREFRYMVENGLTPAQALLAGTANAARCLGTFDRVGTLEAGKLADVVAVPGNPIADITVTERPLFVMKDGVVVRRDAVR",68,70
